Assay results reported in the supplement of paper PMC10567573.
± gives the standard deviation.

Assay: protein stability index of a GFP-peptide fusion (GPS, HEK-293T) (PSI 1-6); higher = more stable
[1] = treatment: DMSO, c terminus: a fixed tail appended
[2] = treatment: MLN4924 1 uM, 8 h, c terminus: a fixed tail appended
[3] = treatment: DMSO, c terminus: native
[4] = treatment: MLN4924 1 uM, 8 h, c terminus: native
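Also: 24-mer peptide tiles fused after GFP, lentivirally expressed, FACS-sorted into six equal bins by GFP/DsRed ratio, decoded by Illumina sequencing, PSI is the read-weighted mean bin number.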

In the case of SRSVEDDKEGHLVCRIGDWLQERY [CLK3], the protein stability index [1] is reported as 3.41 ± 0.23 and the protein stability index [2] is reported as 3.45 ± 0.2.
With SRNRDPGRLILSTIRLRPRQVLCE [PWWP2B] the protein stability index [1] was 2.68 ± 0.18 and the protein stability index [2] was 3.04 ± 0.25.
Work on MVHKRSHTGERPFQCNQCGASFTQ [IKZF1] yielded a protein stability index [1] of 2.86 ± 0.25 and a protein stability index [2] of 2.97 ± 0.43.
GVKFVGLFIILQVGLNTIADLWYL [POMT2] gave a protein stability index [1] of 3.52 ± 0.1 and a protein stability index [2] of 2.9 ± 1.2.
PYKREEEALEERRLSRGEIPTLQR [PKD2L1] showed a protein stability index [1] of 4.76 ± 0.31 and a protein stability index [2] of 4.82 ± 0.27.
In the case of NRNQGLNRLMLAVRDMMANFHLND [TCF25], the protein stability index [1] is reported as 2.1 ± 0.16 and the protein stability index [2] is reported as 2.24 ± 0.37.
In the case of MSSPSSPFREQSFLCAAGDAGEES [TIAF1], the protein stability index [1] is reported as 5.34 ± 0.18 and the protein stability index [2] is reported as 5.32 ± 0.17.
Work on WKCKNARGQVGLVPKNYVVVLSDG [NCK2] yielded a protein stability index [1] of 2.15 ± 0.26 and a protein stability index [2] of 2.31 ± 0.45.
Sequence NSSEELSSALHLSKGMSIFLDILR [NECAB1] has a protein stability index [1] of 2.38 ± 0.13 and a protein stability index [2] of 2.54 ± 0.21.
LMRTCERLVKEGRFVPSNPIGILT [PPTC7] gave a protein stability index [1] of 2.65 ± 0.17 and a protein stability index [2] of 2.53 ± 0.23.
AFPKMALQAKQDGKKDVSHSSPVD [LCOR] showed a protein stability index [1] of 5.26 ± 0.14 and a protein stability index [2] of 5.16 ± 0.16.
With TAPLPMPEGPEPAAPGKQPGRGHT [ELOA2] the protein stability index [1] was 5.53 ± 0.15 and the protein stability index [2] was 5.27 ± 0.2.
Work on KDPAYFYGYVYFRQVRDKTLKRGY [DENND6A] yielded a protein stability index [1] of 2.44 ± 0.31 and a protein stability index [2] of 1.96 ± 0.29.
With LKNEIQEVEELDNWQPAVPLMHML [SPATS1] the protein stability index [1] was 2.8 ± 0.45 and the protein stability index [2] was 3.18 ± 0.38.
Sequence AEAQKNMYFKTRLKCPRSLSGGR [ZNF396] has a protein stability index [3] of 2.72 ± 0.45 and a protein stability index [4] of 2.99 ± 0.44.
Sequence AHRTEFYRNLTHNPPSDFSFQNMN [STK38L] has a protein stability index [1] of 2.84 ± 0.34 and a protein stability index [2] of 2.88 ± 0.24.
NSRRNINYRSFEPILRLLPQGISP [ZER1] showed a protein stability index [1] of 2.3 ± 0.2 and a protein stability index [2] of 2.54 ± 0.17.
Work on LAAALAQHSVPLQLELRAGAERLD [TRADD] yielded a protein stability index [1] of 2.97 ± 0.36 and a protein stability index [2] of 2.94 ± 0.12.
In the case of VHTGCHKKLGPEARRPRTRWGKN, the protein stability index [3] is reported as 2.8 ± 0.5 and the protein stability index [4] is reported as 3.08 ± 0.69.
For KANNLSSLSKKYRQDAKYLNMRST [SEC22B], the protein stability index [1] was 3.23 ± 0.11 and the protein stability index [2] was 3.33 ± 0.24.
MNRAFSRKKDKTWMHTPEALSKHF [GULP1] gave a protein stability index [1] of 2.69 ± 0.21 and a protein stability index [2] of 2.85 ± 0.14.
Work on GCTGDEAESRGHSKGWGRNYASII [MYCL] yielded a protein stability index [1] of 3.1 ± 0.13 and a protein stability index [2] of 3.2 ± 0.17.
In the case of FSLKQEETLDYGKNYNYGMHYCAV [NEUROD6], the protein stability index [1] is reported as 2.4 ± 0.18 and the protein stability index [2] is reported as 2.07 ± 0.34.
KVIVVMRSLFIDRTIVKGYNENVY [MED27] gave a protein stability index [1] of 2.77 ± 0.39 and a protein stability index [2] of 3.29 ± 0.33.
VWWVSQFVKYLIRPQPWLEKEIEE [FUT8] gave a protein stability index [1] of 2.32 ± 0.46 and a protein stability index [2] of 2.035 ± 0.002.
Sequence PIGILTTSYCELLQNKVPLLGSST [PPTC7] has a protein stability index [1] of 2.63 ± 0.53 and a protein stability index [2] of 2.66 ± 0.47.
Work on CRFLLNSRVTDAAFNFLLVWYYCT [TMEM120A] yielded a protein stability index [1] of 2.85 ± 0.74 and a protein stability index [2] of 2.38 ± 0.48.
QEGAASKVLGRLRALSDTTEELTV [SLC2A12] gave a protein stability index [1] of 4.46 ± 0.31 and a protein stability index [2] of 4.65 ± 0.37.
GPDVLETDGLQEVPLCSCRMETPK [EHMT1] showed a protein stability index [1] of 4.16 ± 0.43 and a protein stability index [2] of 4.29 ± 0.29.
RKQLQPTHCKYEGPRKARRLWFA gave a protein stability index [3] of 2.85 ± 0.39 and a protein stability index [4] of 3.04 ± 0.13.
ARRTTRSEPIRRAGKSGTSTPTTP [MAP2] gave a protein stability index [1] of 4.66 ± 0.12 and a protein stability index [2] of 4.8 ± 0.12.
VTLIVDNTRFVVDPSIFTAQPNTM [BTBD10] showed a protein stability index [1] of 2.84 ± 0.51 and a protein stability index [2] of 3.2 ± 0.74.
QVTAPGAPPLQAETPGSAVDYPLH [TNXB] showed a protein stability index [1] of 4.45 ± 0.087 and a protein stability index [2] of 5.292 ± 0.007.
For KLWDPVDGSVVRDFEHRPKAPVVE [WDR88], the protein stability index [1] was 4.08 ± 0.23 and the protein stability index [2] was 4.23 ± 0.2.
Sequence EPMWSGSTMRRMALRPTAFSGCLN [EMID1] has a protein stability index [1] of 2.82 ± 0.27 and a protein stability index [2] of 2.79 ± 0.16.
HESSGNPPLRVIVKDALFCSCLSD [RHOBTB3] showed a protein stability index [1] of 3.11 ± 0.25 and a protein stability index [2] of 3.24 ± 0.12.
PLKLHYQLRNVRERLAKNLVEKGV [GOLPH3] showed a protein stability index [1] of 2.4 ± 0.15 and a protein stability index [2] of 2.7 ± 0.3.
Work on MSSRKVLAIQARKRRPKREKHPKK [SRPK2] yielded a protein stability index [1] of 4.41 ± 0.28 and a protein stability index [2] of 4.46 ± 0.52.
Work on GYKEFFMKCQSYCEPPSYRPMHHE [CDC25A] yielded a protein stability index [1] of 2.49 ± 0.15 and a protein stability index [2] of 2.42 ± 0.34.
In the case of FEPVKSFFKGLVEAVESTLQTPLD [TRIM14], the protein stability index [1] is reported as 2.19 ± 0.2 and the protein stability index [2] is reported as 2.4 ± 0.23.
Work on NWGNGKRPNLETYYERVLKRKTFN [GDAP1] yielded a protein stability index [1] of 2.57 ± 0.12 and a protein stability index [2] of 2.79 ± 0.52.
Work on LLTTSPVFPHYIEKPLGRVGVFLD [TRIM43] yielded a protein stability index [1] of 2.08 ± 0.12 and a protein stability index [2] of 2.31 ± 0.25.
HSCTCVLYTPSNEHFGIVPLEAMY [ALG2] showed a protein stability index [1] of 2.43 ± 0.38 and a protein stability index [2] of 2.41 ± 0.22.
In the case of YKDTCHELDELQLCKNCFYLSNAR [ZMYND11], the protein stability index [1] is reported as 2.66 ± 0.31 and the protein stability index [2] is reported as 3.02 ± 0.25.
